This series has as its system Escherichia coli TOP10. Description: shrunken log2 fold change of peptide-encoding DNA abundance (4.5 h post-induction vs induction); higher = less antimicrobial activity (less host growth inhibition). The note with it: time post-induction: 4.5 h; library: site-saturation at positions 5, 18, 19, 20.
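Note: peptides expressed intracellularly from a pBAD plasmid library in pooled LB shake-flask culture, induced with 0.3% L-arabinose, DNA abundance read by NGS, three biological replicates, DESeq2 with apeglm shrinkage.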

Regarding RRIRKRPPRLPRPRPRPKLTPRP, the “shrunken log2 fold change” value amounted to 0.104.

RRIRFRPPRLPRPRPRPHKHPRP: the “shrunken log2 fold change” value is -0.579.

Consider RRIRERPPRLPRPRPRPDSKPRP, for which the “shrunken log2 fold change” value was -0.312.

Regarding RRIRWRPPRLPRPRPRPSTPPRP, the “shrunken log2 fold change” value turned out to be 0.0706.

In the case of RRIRIRPPRLPRPRPRPGCFPRP, the “shrunken log2 fold change” value is -0.0641.

For RRIRCRPPRLPRPRPRPGSGPRP, the “shrunken log2 fold change” value turned out to be 0.496.

Turning to RRIRKRPPRLPRPRPRPVYEPRP, the “shrunken log2 fold change” value was -0.115.

For RRIRWRPPRLPRPRPRPNFKPRP, the “shrunken log2 fold change” value is -0.264.

In the case of RRIRTRPPRLPRPRPRPNPQPRP, the “shrunken log2 fold change” value came to 0.125.

For the sequence RRIRDRPPRLPRPRPRPLGMPRP, the “shrunken log2 fold change” value amounted to 0.111.

On to RRIRARPPRLPRPRPRPLRYPRP, for which the “shrunken log2 fold change” value was -0.00438.

RRIRDRPPRLPRPRPRPVPRPRP: the “shrunken log2 fold change” value was 0.186.

RRIRMRPPRLPRPRPRPKYHPRP: the “shrunken log2 fold change” value is -0.488.

For the sequence RRIRIRPPRLPRPRPRPYSRPRP, the “shrunken log2 fold change” value is -0.0136.

Turning to RRIRKRPPRLPRPRPRPAGLPRP, the “shrunken log2 fold change” value came to 0.126.

RRIRYRPPRLPRPRPRPNKDPRP: the “shrunken log2 fold change” value was -1.01.

Regarding RRIRQRPPRLPRPRPRPGCNPRP, the “shrunken log2 fold change” value is -0.0136.

RRIRLRPPRLPRPRPRPFMYPRP: the “shrunken log2 fold change” value is -1.5.

In the case of RRIRMRPPRLPRPRPRPLMSPRP, the “shrunken log2 fold change” value was 0.00915.

Take RRIRKRPPRLPRPRPRPLRWPRP: the “shrunken log2 fold change” value worked out at 1.37.

On to RRIRDRPPRLPRPRPRPALMPRP, for which the “shrunken log2 fold change” value stood at 0.333.

Turning to RRIRARPPRLPRPRPRPFFYPRP, the “shrunken log2 fold change” value amounted to 0.105.

Regarding RRIRKRPPRLPRPRPRPMEAPRP, the “shrunken log2 fold change” value was determined as 0.0719.

In the case of RRIRLRPPRLPRPRPRPTYGPRP, the “shrunken log2 fold change” value is -0.0237.

Regarding RRIRRRPPRLPRPRPRPIHGPRP, the “shrunken log2 fold change” value is -0.302.

In the case of RRIRKRPPRLPRPRPRPHEVPRP, the “shrunken log2 fold change” value is -0.00968.

Consider RRIRWRPPRLPRPRPRPVWWPRP, for which the “shrunken log2 fold change” value was determined as 0.729.

Turning to RRIRIRPPRLPRPRPRPIPKPRP, the “shrunken log2 fold change” value is -0.0993.

Turning to RRIRARPPRLPRPRPRPLVQPRP, the “shrunken log2 fold change” value came out at 0.561.

For RRIRLRPPRLPRPRPRPCVVPRP, the “shrunken log2 fold change” value is -0.457.

Regarding RRIRGRPPRLPRPRPRPPWVPRP, the “shrunken log2 fold change” value stood at 0.753.

As to RRIRERPPRLPRPRPRPVMCPRP, the “shrunken log2 fold change” value was found to be 0.0654.

Take RRIRMRPPRLPRPRPRPFEIPRP: the “shrunken log2 fold change” value was found to be 0.0739.

For the sequence RRIRLRPPRLPRPRPRPKPTPRP, the “shrunken log2 fold change” value was 0.15.

For the sequence RRIRNRPPRLPRPRPRPKSVPRP, the “shrunken log2 fold change” value was determined as 0.0186.

In the case of RRIRRRPPRLPRPRPRPHEEPRP, the “shrunken log2 fold change” value stood at 0.0957.

As to RRIRQRPPRLPRPRPRPMHHPRP, the “shrunken log2 fold change” value was -0.288.

Consider RRIRDRPPRLPRPRPRPAECPRP, for which the “shrunken log2 fold change” value came to 0.232.

For the sequence RRIRSRPPRLPRPRPRPFRYPRP, the “shrunken log2 fold change” value is -0.822.

Take RRIRARPPRLPRPRPRPQYGPRP: the “shrunken log2 fold change” value is -0.442.

On to RRIRHRPPRLPRPRPRPNGCPRP, for which the “shrunken log2 fold change” value was -0.0302.

As to RRIRSRPPRLPRPRPRPPIPPRP, the “shrunken log2 fold change” value came out at 0.0379.

As for RRIRHRPPRLPRPRPRPPQDPRP, the “shrunken log2 fold change” value amounted to 0.0355.

For the sequence RRIRPRPPRLPRPRPRPTYNPRP, the “shrunken log2 fold change” value is -0.664.

As for RRIRLRPPRLPRPRPRPWCVPRP, the “shrunken log2 fold change” value is -0.35.

For RRIRKRPPRLPRPRPRPIPLPRP, the “shrunken log2 fold change” value turned out to be 0.0106.

On to RRIRLRPPRLPRPRPRPRPWPRP, for which the “shrunken log2 fold change” value was 0.199.

Regarding RRIRGRPPRLPRPRPRPDRIPRP, the “shrunken log2 fold change” value is 0.286.

For RRIRFRPPRLPRPRPRPYVRPRP, the “shrunken log2 fold change” value was -0.0985.

As for RRIRLRPPRLPRPRPRPSAVPRP, the “shrunken log2 fold change” value is -0.16.

As for RRIRYRPPRLPRPRPRPTKIPRP, the “shrunken log2 fold change” value was -0.373.

With RRIRRRPPRLPRPRPRPQNAPRP, the “shrunken log2 fold change” value is 0.0513.

Turning to RRIRQRPPRLPRPRPRPIRHPRP, the “shrunken log2 fold change” value is -0.182.

Take RRIRDRPPRLPRPRPRPFMQPRP: the “shrunken log2 fold change” value was 0.0183.

As for RRIRNRPPRLPRPRPRPFWAPRP, the “shrunken log2 fold change” value was 0.0267.

For the sequence RRIRVRPPRLPRPRPRPTFHPRP, the “shrunken log2 fold change” value was 0.0139.

With RRIRKRPPRLPRPRPRPPPPPRP, the “shrunken log2 fold change” value came out at 1.23.

With RRIRARPPRLPRPRPRPALAPRP, the “shrunken log2 fold change” value is 0.554.

For the sequence RRIRKRPPRLPRPRPRPTRFPRP, the “shrunken log2 fold change” value was found to be 0.436.

For the sequence RRIRMRPPRLPRPRPRPAKSPRP, the “shrunken log2 fold change” value came out at 0.261.

RRIRVRPPRLPRPRPRPAFCPRP: the “shrunken log2 fold change” value was 0.185.

For the sequence RRIRNRPPRLPRPRPRPMGRPRP, the “shrunken log2 fold change” value was -0.117.

Take RRIRWRPPRLPRPRPRPCADPRP: the “shrunken log2 fold change” value was 0.579.

Take RRIRKRPPRLPRPRPRPYSLPRP: the “shrunken log2 fold change” value is -0.0434.

As for RRIRFRPPRLPRPRPRPARWPRP, the “shrunken log2 fold change” value was found to be 0.577.

RRIRNRPPRLPRPRPRPMEFPRP: the “shrunken log2 fold change” value was -0.136.

In the case of RRIRVRPPRLPRPRPRPENFPRP, the “shrunken log2 fold change” value was 0.0199.

Regarding RRIRYRPPRLPRPRPRPHCWPRP, the “shrunken log2 fold change” value was -0.702.

Regarding RRIRCRPPRLPRPRPRPLCSPRP, the “shrunken log2 fold change” value was -0.399.

With RRIRNRPPRLPRPRPRPMEPPRP, the “shrunken log2 fold change” value was -0.0573.

Turning to RRIRMRPPRLPRPRPRPILQPRP, the “shrunken log2 fold change” value stood at 0.133.

As to RRIRWRPPRLPRPRPRPGHSPRP, the “shrunken log2 fold change” value is 0.0135.

For the sequence RRIRMRPPRLPRPRPRPFIPPRP, the “shrunken log2 fold change” value is -0.26.

Turning to RRIRGRPPRLPRPRPRPIGCPRP, the “shrunken log2 fold change” value came out at 0.0147.

Turning to RRIRNRPPRLPRPRPRPHYCPRP, the “shrunken log2 fold change” value was -0.481.

Regarding RRIRLRPPRLPRPRPRPWGSPRP, the “shrunken log2 fold change” value worked out at 0.103.

Consider RRIRDRPPRLPRPRPRPNNMPRP, for which the “shrunken log2 fold change” value was -0.0368.

Take RRIRKRPPRLPRPRPRPTFIPRP: the “shrunken log2 fold change” value was -0.0546.

Turning to RRIRPRPPRLPRPRPRPMVCPRP, the “shrunken log2 fold change” value was -0.0948.

In the case of RRIRFRPPRLPRPRPRPQRGPRP, the “shrunken log2 fold change” value came out at 0.353.

As for RRIRWRPPRLPRPRPRPVSMPRP, the “shrunken log2 fold change” value was -0.00416.

With RRIRTRPPRLPRPRPRPFLNPRP, the “shrunken log2 fold change” value is -0.183.

With RRIRCRPPRLPRPRPRPMHGPRP, the “shrunken log2 fold change” value came out at 0.0358.

As to RRIRWRPPRLPRPRPRPPPPPRP, the “shrunken log2 fold change” value came to 0.958.

RRIRARPPRLPRPRPRPEPEPRP: the “shrunken log2 fold change” value was found to be 0.967.

For RRIRLRPPRLPRPRPRPVNDPRP, the “shrunken log2 fold change” value is -0.52.

For RRIRDRPPRLPRPRPRPGMLPRP, the “shrunken log2 fold change” value is -0.0263.

On to RRIRKRPPRLPRPRPRPDLCPRP, for which the “shrunken log2 fold change” value came out at 0.741.

As to RRIRPRPPRLPRPRPRPQKEPRP, the “shrunken log2 fold change” value was 0.0431.

As to RRIRCRPPRLPRPRPRPLTNPRP, the “shrunken log2 fold change” value was -0.454.

As to RRIRLRPPRLPRPRPRPENAPRP, the “shrunken log2 fold change” value is -0.000678.

These data come from the supplement of paper PMC9112550, “Optimization of the antimicrobial peptide Bac7 by deep mutational scanning” (BMC Biology, 2022).
